From paper PMC9305820
pKd: −log10 of the molar value.

Legend:
[1] = biological target: Transforming growth factor-β1 (TGF-β1) dimer (UniProt P01137); assay: dynamic light scattering
[2] = biological target: Transforming growth factor-β1 (TGF-β1) dimer (UniProt P01137); assay: negative-stain electron microscopy
[3] = biological target: Fluorescently labeled TGF-β1; assay: MST

UniProt P01137, sequence (P01137 279-390): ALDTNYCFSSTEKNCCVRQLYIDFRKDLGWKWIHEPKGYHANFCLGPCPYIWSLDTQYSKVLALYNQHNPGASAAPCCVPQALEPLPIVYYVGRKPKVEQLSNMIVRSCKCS

“Bintrafusp alfa (from UniProt P37173 23-166)” was tested, and the stoichiometry N (BA per TGF-β1 dimer) [1] was 1, the stoichiometry N (TGF-β1 dimer per BA) [2] was 1 and the pKd [3] was 10.26.
